From patent US20060183888A1

Substrate: C[C@@H]1CC=N[C@H]1C(=O)NCCCC[C@H](N)C(=O)O
Test: purified protein, by the assay type
Settings: other: 37° C., pH 7.2
Experimental: The pyrophosphate exchange reaction was essentially performed following the method of Cole and Schimmel. All reactions were performed in duplicate at 37° C. The 100 to 200 μl reactions contained (unless noted) 0.3 to 1 HM PylSHis6. […] The specific activity of the radiolabel was adjusted from 4 to 10 dpm/pmol). The concentration of protein was 0.3 to 1 μM. At specific times, 25 μl aliquots were removed and quenched in 500 μl of a stop solution containing 1.6% (w/v) activated acid-washed charcoal (Sigma Chemical Co., St. Louis, Mo.), 80 mM sodium tetrapyrophosphate, and 3.5% (v/v) perchloric acid. Samples were filtered through Whatman GF/C glass-fiber filters and then the filter was washed three times with 5 ml of 40 mM sodium tetrasodium pyrophosphate solution containing 1.7% perchloric acid (v/v) and once with 5 ml 100% ethanol. Filters were dried at 80° C. for 5 minutes then placed in 20 ml scintillation vials containing 10 ml of Ultima Gold F scintillation cocktail (PerkinElmer), shaken once, and counted in a liquid scintillation analyzer. Identical reactions without amino acid, ATP, or enzyme were also set up as negative controls in duplicate.

B1: PylS-His6 (Methanosarcina barkeri) (protein)
chain: MDKKPLDVLISATGLWMSRTGTLHKIKHHEVSRSKIYIEMACGDHLVVNNSRSCRTARAFRHHKYRKTCKRCRVSDEDINNFLTRSTESKNSVKVRVVSAPKVKKAMPKSVSRAPKPLENSVSAKASTNTSRSVPSPAKSTPNSSVPASAPAPSLTRSQLDRVEALLSPEDKISLNMAKPFRELEPELVTRRKNDFQRLYTNDREDYLGKLERDITKFFVDRGFLEIKSPILIPAEYVERMGINNDTELSKQIFRVDKNLCLRPMLAPTLYNYLRKLDRILPGPIKIFEVGPCYRKESDGKEHLEEFTMVNFCQMGSGCTRENLEALIKEFLDYLEIDFEIVGDSCMVYGDTLDIMHGDLELSSAVVGPVSLDREWGIDKPWIGAGFGLERLLKVMHGFKNIKRASRSESYYNGISTNL
Protein B1 has a Km of 53 µM and a kcat of 0.1 s⁻¹.
